Data published in the supplement of paper PMC9170038.

Test system: K4 kissing-loop RNA reporter
Assay: apparent KD of K4 kissing-loop reporter; higher = weaker reporter binding
Conditions: Eterna round: R107
Procedure: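 RNA-MaP round R107: designed RNA switches with theophylline, tryptophan, arginine or FMN aptamers are transcribed on-chip within common flanks. They are titrated with a labelled K4 kissing-loop RNA reporter in RNA-MaP buffer (100 mM Tris pH 7.5, 80 mM KCl, 4 mM MgCl2), without ligand or with the indicated ligand. Median apparent KD per design.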

[1] = input ligand: theophylline 20 uM
[2] = input ligand: tryptophan 2.4 mM
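Further: bound reporter read as fluorescence of individual clusters on recovered sequencing chips by microscopy, with normalized cluster intensities fitted with a binding model.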

Sequence | apparent KD of K4 kissing-loop reporter (input ligand: FMN 200 uM) [nM] | apparent KD of K4 kissing-loop reporter (input ligand: arginine 13.2 mM) [nM] | apparent KD of K4 kissing-loop reporter (input ligand: none) [nM] | apparent KD of K4 kissing-loop reporter [1] [nM] | apparent KD of K4 kissing-loop reporter [2] [nM]
GGAGGUUGGUGCGAUACCAGACCAGCAGUGAUGUUGCGCCAAAGUGAGUGAUGUUCACCGGUCCCUUGGCAGCGCAUUCCUUUAG [Same State Theophylline B GF 14] | 964 | 1110 | 1440 | 1120 | 1110
GGAGUAACCUGGGAUACCAGUCGGAGGCCUAGGGAUCGGAGUGAUGUUCUGGGAUGUUUCGGCCCUUGGCAGCUCUGGGUCUCCG [#2 Exclusion - Theophylline B Attempt #2 (HarryS)] | 184 | 105 | 151 | 158 | 144
GGAUAGGACAGAGGAUAUUGGUAGUGAUGUUACCAAAUAAAUAAACAGUCUACAAAGUAGGCUGACCAAGAAGGCUGUCCUAUCG [FmnBX 24 #SwitchBubble #StaticStem #Palindromic] | 226 | 79.1 | 85.2 | 80.1 | 74.7
GGAUAGGAUAGAGGAUAUGGAAAACACAAAAGUGACUUGUUGUGUUUAUCCAUAGGGAGUGAUGUUCCAGAAGGCUGUCCUAUCG [MatMod 23 - Jieux - Exclusion - FMN B] | 229 | 169 | 169 | 164 | 136
GGAUAGGAUAGAGGAUAUGGGUUAGGCAAGAAUAACUUGUCUAGUAAAUCCAUGAGGAGUGAUGUUCCAGAAGGCUGUCCUAUCG [MatMod 4 - Jieux - Exclusion - FMN B] | 429 | 125 | 117 | 127 | 98.3
GGAUAGGAUAGAGGAUAUGGUAUAUGCAAGAAUAACUUGUCAUGUAAAUCCAUGAGGAGUGAUGUUCCAGAAGGCUGUCCUAUCG [MatMod 10 - Jieux - Exclusion - FMN B] | 646 | 324 | 480 | 519 | 379
GGAUCUUCCAGUGAUGUUGGUUAAUAUAUCAAGGAUAUGACGAAAGUCAGAAGGUGAAAGACUGGACAAAGUCCAGUCGGAUCCA [KL-SSFMN-A19] | 444 | 573 | 599 | 444 | 430
GGAUGGUAGGCGGCCGCCACUAAAACUGAACACAUACAAGCCAGUGAUGUUGGUAUGAUGGAGUAUAGGACCGGGCCUAGAUAGA [Exclusion - Tryptophan B (Freestyle 4)] | 452 | 367 | 472 | 420 | 421
GGCACUUUUGCUUGGAACCGUCAAGCUCGAUAGGAUAUGCCGAAAGGCAGAAGGAUUGACCUACAGAGUGAUGUUCUGCGUGCCU | 791 | 378 | 830 | 288 | 408
GGCAGUGAUGUUGCCAGUGGCAGAUGUGAAGGAGCGCGGUGAGACGCAGGUAGGUCGCACAUUGAAAUUGCUGUCACUAAAAUGC [#02 K4 Arginine A Exclusion] | 294 | 300 | 273 | 314 | 215
GGCAGUGAUGUUGCCUUCGCAAUGCAUGCAGAGGAUAUUCGUUUGGGAAGAAGGCUGCAGCGUUCUCUCGAGUGAUGUUCGGGUG [Same State FMN A GF 19] | 130 | 168 | 195 | 181 | 177
GGCGGCCGCGCGAAAGCGCGGCCGGCCGAUACCAGCGCGCCGGCGCGCCCUUGGCAGCGGCGCCGAGUGAUGUUCGGCCUGCCGU [#2 Same State - Theophylline A Attempt #12 (HarryS)] | 144 | 101 | 112 | 134 | 125
GGCUCCUACGCAGGAUAUAGUAGCCGAGAGUGAUGUUCUACGGCGUUUGCCGAUUUAGUCACAGAUCUAGAAGGGUGUAGGAGCC [XFMN-B PiClone] | 1040 | 660 | 1130 | 756 | 1000
GGCUUGCUAGUGAUGUUAGCAUUUUCUGAAGGAGCGCGUGAAAACGCAGGUAGGUCGCAGAACCUUGCCAACUAUUUUAGUUGCC [Ex Arginine A K4 27] | 101 | 113 | 94.3 | 97.3 | 82.4
GGGAGGAGUGGUGUUGAUUAAGAAGCGGAAGGAGCGCCGAAGAAGGCAGGUAGGUCGCCGGAAUAUAGUGAUGUUAUAUAGAGGG [ExArg.E] | 529 | 323 | 230 | 406 | 252
GGGAGUAGUGCGGCCGCCACUGUGAAAGAAGAAGAAUAUAGUGAUGUUAUAUAGGAAAGGAAGAAUAGGACCGGGCAUUAGAUUU [SSTRyptB.K] | 213 | 226 | 260 | 235 | 183
GGGUAUUACGGAGGAUAUGCACUGAGGAGGAGAAUAUAGUGAUGUUAUAUAAGAGGAAGGAGAAGAGUAGAAGGCCGUGGUAUUG [SSFMNB.H] | 247 | 217 | 280 | 277 | 190
GGGUGUAGUGCGGCCGCCACUGUGAUAGUAGAAGAGUAUAGUGAUGUUAUAUAGGAUUAAUAGAAUAGGACCGGGCAUUAGACUU [#24 K4 Tryptophan B Same State] | 348 | 340 | 368 | 395 | 209
GGUAGCAUGGCGGCCGCCACUACUGACAGCUGUCUGUUCUGGGUACCAGGGAGUGAUGUUCCCGGUAGGACCGGGCCAUGCUACC | 135 | 106 | 114 | 112 | 266
GGUAGCAUGGCGGCCGCCACUAUUACUGGAUCGGAAACGAUCCAGUAUUUAUGAGUGAUGUUCAUUAGGACCGGGCCAUGCUACC | 342 | 301 | 304 | 305 | 208
GGUAGCAUGGCGGCCGCCACUUUAUACUCGGUCGUUGGCGUCGUAAGUGAUGUUUACAUUCGCAAAAGGACCGGGCCAUGCUACC | 97.8 | 56.6 | 81.2 | 123 | 133
